Test results published in publication PMC12339401 (Nature Cell Biology, 2025).

Legend:
Settings in all cases: both partners purified
mCherry-WIPI3 = biological target: T1, mCherry-WIPI3 (UniProt Q5MNZ6 1-344); experiment: microscopy-based bead assay; GFP-tagged bait on GFP-trap agarose beads, mCherry-tagged prey in solution, confocal imaging
T1 construct: 6xHis-TEV-mCherry tag; also called mCherry-tagged WIPI3; source: E. coli Rosetta pLysS, purified; not shown: mCherry, N-terminal, kept

mCherry-tagged WIPI1 = biological target: T2, mCherry-tagged WIPI1 (UniProt Q5MNZ9 1-446); experiment: microscopy-based bead assay; GST-tagged bait on Glutathione Sepharose 4B beads, GFP- or mCherry-tagged prey in solution, confocal imaging
T2 construct: WIPI1; called purified WIPI1-4 in the results
T2 sequence (looked up): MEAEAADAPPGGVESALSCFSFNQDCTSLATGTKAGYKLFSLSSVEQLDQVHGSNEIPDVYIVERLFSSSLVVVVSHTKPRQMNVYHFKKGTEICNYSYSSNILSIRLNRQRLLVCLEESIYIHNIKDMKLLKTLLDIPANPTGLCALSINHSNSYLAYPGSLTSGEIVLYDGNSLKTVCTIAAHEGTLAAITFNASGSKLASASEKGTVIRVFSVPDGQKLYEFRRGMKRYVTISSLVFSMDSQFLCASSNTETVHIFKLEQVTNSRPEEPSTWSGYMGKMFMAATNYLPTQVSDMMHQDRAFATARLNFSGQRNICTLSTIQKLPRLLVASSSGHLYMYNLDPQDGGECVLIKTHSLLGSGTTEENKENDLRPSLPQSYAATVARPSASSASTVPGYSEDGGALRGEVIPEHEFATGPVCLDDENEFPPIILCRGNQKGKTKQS

GST-WIPI3 = GST-WIPI3 (UniProt Q5MNZ6 1-344); experiment: as above

B1: GFP-tagged ATG13 (191–230 aa) (peptide, UniProt O75143 191-230, looked up)
chain: INLAFMSTRQFERTPPIMGIIIDHFVDRPYPSSSPMHPCN
notes: Addgene number by the order of printing; source: E. coli Rosetta pLysS, purified; not shown: EGFP, N-terminal, kept
B1: binds (mCherry-WIPI3).

B2: GFP-tagged ATG13 IDR Δ191–205 (205–517 aa) (domain or fragment, UniProt O75143 205-517, looked up)
chain: PPIMGIIIDHFVDRPYPSSSPMHPCNYRTAGEDTGVIYPSVEDSQEVCTTSFSTSPPSQLSSSRLSYQPAALGVGSADLAYPVVFAAGLNATHPHQLMVPGKEGGVPLAPNQPVHGTQADQERLATCTPSDRTHCAATPSSSEDTETVSNSSEGRASPHDVLETIFVRKVGAFVNKPINQVTLTSLDIPFAMFAPKNLELEDTDPMVNPPDSPETESPLQGSLHSDGSSGGSSGNTHDDFVMIDFKPAFSKDDILPMDLGTFYREFQNPPQLSSLSIDIGAQSMAEDLDSLPEKLAVHEKNVREFDAFVETLQ
notes: as for B1
B2: binds (mCherry-WIPI3).

B3: NIX(1–182)-GST (domain or fragment)
chain: not shown
notes: NIX (BNIP3L), human, cytosol-exposed domain, residues 1-182; transmembrane domain replaced by GST; also called NIX-GST; GST-tagged NIX; source: E. coli Rosetta pLysS, purified; not shown: GST, C-terminal, kept
B3: binds (mCherry-tagged WIPI1).

B4: GFP-tagged ATG13 (206–230 aa) (peptide, UniProt O75143 206-230, looked up)
chain: PIMGIIIDHFVDRPYPSSSPMHPCN
notes: ATG13, residues 206-230; Addgene number by the order of printing; also called ATG13 IDR fragment residues 206–230; source: E. coli Rosetta pLysS, purified; not shown: EGFP, N-terminal, kept
B4: binds (mCherry-WIPI3).

B5: mCherry-tagged ATG13 IDR (191–517 aa) (domain or fragment, UniProt O75143 191-517, looked up)
chain: INLAFMSTRQFERTPPIMGIIIDHFVDRPYPSSSPMHPCNYRTAGEDTGVIYPSVEDSQEVCTTSFSTSPPSQLSSSRLSYQPAALGVGSADLAYPVVFAAGLNATHPHQLMVPGKEGGVPLAPNQPVHGTQADQERLATCTPSDRTHCAATPSSSEDTETVSNSSEGRASPHDVLETIFVRKVGAFVNKPINQVTLTSLDIPFAMFAPKNLELEDTDPMVNPPDSPETESPLQGSLHSDGSSGGSSGNTHDDFVMIDFKPAFSKDDILPMDLGTFYREFQNPPQLSSLSIDIGAQSMAEDLDSLPEKLAVHEKNVREFDAFVETLQ
notes: also called mCh-IDR; source: E. coli Rosetta pLysS, purified; not shown: mCherry, N-terminal, kept
B5: binds (GST-WIPI3).

B6: GFP-tagged ATG13 IDR (191–517 aa) (domain or fragment, UniProt O75143 191-517, looked up)
chain: B5 chain
notes: also called full IDR; full-length IDR; source: E. coli Rosetta pLysS, purified; not shown: EGFP, N-terminal, kept
B6: binds (mCherry-WIPI3).
